According to patent US20040005630A1 (published 2004):

Assays:
[1] = target: T1, rat CD5 antigen (rat equivalent of CD5) present on rat T cells (rat) (UniProt P51882); assay: flow cytometry of rat spleen cells 3 h after 0.5 mg/kg i.v., PE anti-mouse IgG1 detection
T1 sequence (looked up): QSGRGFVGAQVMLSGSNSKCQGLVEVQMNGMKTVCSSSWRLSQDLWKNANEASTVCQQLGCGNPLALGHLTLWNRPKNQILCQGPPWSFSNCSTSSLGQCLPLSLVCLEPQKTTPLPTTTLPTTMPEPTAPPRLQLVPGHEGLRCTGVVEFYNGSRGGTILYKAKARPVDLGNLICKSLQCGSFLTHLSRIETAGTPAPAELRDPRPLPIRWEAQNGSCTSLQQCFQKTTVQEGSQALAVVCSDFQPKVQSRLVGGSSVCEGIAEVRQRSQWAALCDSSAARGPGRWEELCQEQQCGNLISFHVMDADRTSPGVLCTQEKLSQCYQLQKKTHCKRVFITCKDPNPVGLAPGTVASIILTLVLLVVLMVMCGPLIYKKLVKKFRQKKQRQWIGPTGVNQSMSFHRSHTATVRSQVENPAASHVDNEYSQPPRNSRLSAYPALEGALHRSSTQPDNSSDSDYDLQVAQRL

[2] = target: T1, rat CD5 antigen (rat equivalent of CD5) present on rat T cells (rat); assay: flow cytometry of rat blood cells 3 h after 0.5 mg/kg i.v., PE anti-mouse IgG1 detection
[3] = target: T1, rat CD5 antigen (rat equivalent of CD5) present on rat T cells (rat); assay: flow cytometry of rat lymph node cells 3 h after 0.5 mg/kg i.v., PE anti-mouse IgG1 detection
[4] = target: T1, rat CD5 antigen (rat equivalent of CD5) present on rat T cells (rat); assay: flow cytometry of rat blood cells 3 h after 0.5 mg/kg i.v., PE anti-mouse IgG1 detection (isotype matched negative control)
[5] = target: T1, rat CD5 antigen (rat equivalent of CD5) present on rat T cells (rat); assay: flow cytometry of rat lymph node cells 3 h after 0.5 mg/kg i.v., PE anti-mouse IgG1 detection (isotype matched negative control)
[6] = target: T1, rat CD5 antigen (rat equivalent of CD5) present on rat T cells (rat); assay: flow cytometry of rat spleen cells 3 h after 0.5 mg/kg i.v., PE anti-mouse IgG1 detection (isotype matched negative control)
[7] = target: T2, human CD5 antigen (human, UniProt P06127 25-495); assay: competitive binding on Molt4-M cells, single point at 0.54 nM, competitor 125I-cH65 IgG
T2 construct: whole, on cells; also called gp67; CD5 found on Molt-4M
T2 sequence (looked up): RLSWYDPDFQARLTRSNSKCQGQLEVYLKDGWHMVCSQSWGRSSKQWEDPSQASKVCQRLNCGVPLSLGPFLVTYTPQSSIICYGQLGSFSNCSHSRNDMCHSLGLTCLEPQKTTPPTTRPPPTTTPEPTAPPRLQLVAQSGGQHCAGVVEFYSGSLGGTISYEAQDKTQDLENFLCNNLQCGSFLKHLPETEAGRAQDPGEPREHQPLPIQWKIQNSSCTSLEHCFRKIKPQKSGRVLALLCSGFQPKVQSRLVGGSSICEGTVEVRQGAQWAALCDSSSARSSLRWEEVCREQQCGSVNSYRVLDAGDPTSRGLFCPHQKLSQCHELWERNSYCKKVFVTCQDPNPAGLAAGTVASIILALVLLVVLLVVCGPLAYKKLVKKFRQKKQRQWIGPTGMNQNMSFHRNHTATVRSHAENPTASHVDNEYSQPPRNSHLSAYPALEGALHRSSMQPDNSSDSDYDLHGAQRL
Method: Molt4-M cells, which express CD5 on their surface, were plated into 96 well V-bottom plates at a density of 3×10⁵ cells per well and pelleted by centrifugation. The medium was decanted, and 100 μl of purified cH65 IgG at final concentrations from 200 nM to 0.0017 nM (diluted in 3-fold steps) in “BHD” [DMEM (Dulbecco's Modified Eagle's Medium)+1% BSA+10 mM Hepes, pH 7.2] (BHD) was added to each well, followed by 100 μl of ¹²⁵I-cH65 IgG (final concentration=0.1 nM) in BHD. For single point determinations, 50-100 μl of the Centricon® concentrates were added to the wells as follows: hH65 (final concentration=0.54 nM), cH65 (final concentration=0.22 nM), CM+purified cH65 IgG (final concentration=30 nM) and CM alone. These were followed by addition of ¹²⁵I-cH65 IgG (final concentration=0.1 nM). Binding was allowed to proceed for 5 hours at 4° C. At the end of 5 hours, binding was terminated by three washes with ice cold BHD using centrifugation to pellet cells. Radioactivity was determined by solubilizing bound ¹²⁵I-cH65 IgG with 1N NaOH and counting in a Beckman Gamma 8000 (Beckman Instruments, Fullerton, Calif.).

OX19 MoAb (antibody) gave a % of CD4 cells that are also positive for mouse IgG1 [1] of 84.8%, a % of CD8 cells that are also positive for mouse IgG1 [1] of 73.6% and a % of CD4 cells that are also positive for mouse IgG1 [2] of 96.2%. For the same molecule, the % of CD8 cells that are also positive for mouse IgG1 [2] was 70.2%, the % of CD4 cells that are also positive for mouse IgG1 [3] was 96.2% and the % of CD8 cells that are also positive for mouse IgG1 [3] was 96.8%.

B1: MoAb H65 (murine monoclonal antibody produced by cell line XMMLY-H65) (antibody, V domains shown)
VH: QIQLVQSGPELKKPGETVKISCKASGYTFTNYGMNWVKQAPGKGLRWMGWINTHTGEPTYADDFKGRFAFSLETSASTAYLQINNLKNEDTATYFCTRRGYDWYFDVWGAGTTVTVSS
VL: DIKMTQSPSSMYASLGERVTITCKASQDINSYLSWFQQKPGKSPKTLIYRANRLVDGVPSRFSGSGSGQDYSLTISSLDYEDMGIYYCQQYDESPWTFGGGTKLEIK
B1 gave a % of CD4 cells that are also positive for mouse IgG1 [4] of 6.7%, a % of CD8 cells that are also positive for mouse IgG1 [4] of 5.7% and a % of CD4 cells that are also positive for mouse IgG1 [5] of 4.2%. For the same molecule, the % of CD8 cells that are also positive for mouse IgG1 [5] was 6.5%, the % of CD4 cells that are also positive for mouse IgG1 [6] was 14.8% and the % of CD8 cells that are also positive for mouse IgG1 [6] was 20.6%.

B2: humanized H65 IgG (low-risk modified H65) (antibody, V domains shown)
VH: QIQLVQSGPGLKKPGGSVRISCAASGYTFTNYGMNWVKQAPGKGLRWMGWINTHTGEPTYADDFKGRFTFSLDTSKSTAYLQINSLRAEDTATYFCTRRGYDWYFDVWGQGTTVTVSS
VL: DIQMTQSPSSMSASLGDRVTITCRASQDINSYLSWFQQKPGKSPKTLIYRANRLVDGVPSRFSGSGSGTDYTLTISSLQYEDFGIYYCQQYDESPWTFGGGTKLEIK
notes: Whole IgG transiently expressed in CHO-K1 from vectors pING4612 (heavy) and pING4614 (light); Human constant regions; also called hH65; H65 antibody modified according to the methods of the present invention
B2: binds [7].
